Reference: patent US20090202429A1
Blank lines part the entries; values can stand above or below the substance they belong to.

Key:
[1] = target: human platelet glycoprotein Ib alpha (GPIb alpha), on human platelets (human) (UniProt P07359); test: human whole blood perfused over surface-bound protein, parallel-plate flow chamber, 1600 s^-1
[2] = target: murine platelet glycoprotein Ib alpha (GPIb alpha), on mouse platelets (mouse) (UniProt O35930); test: cell-based or functional assay
[3] = target: human platelet glycoprotein Ib alpha (GPIb alpha), on human platelets (human) (UniProt P07359); test: cell-based or functional assay
[4] = target: human platelet integrin alphaIIb beta3, on human platelets (human) (UniProt P08514); test: cell-based or functional assay
Sequence of human platelet integrin alphaIIb beta3, on human platelets (human) (P08514 32-1039, chain 1 of 2): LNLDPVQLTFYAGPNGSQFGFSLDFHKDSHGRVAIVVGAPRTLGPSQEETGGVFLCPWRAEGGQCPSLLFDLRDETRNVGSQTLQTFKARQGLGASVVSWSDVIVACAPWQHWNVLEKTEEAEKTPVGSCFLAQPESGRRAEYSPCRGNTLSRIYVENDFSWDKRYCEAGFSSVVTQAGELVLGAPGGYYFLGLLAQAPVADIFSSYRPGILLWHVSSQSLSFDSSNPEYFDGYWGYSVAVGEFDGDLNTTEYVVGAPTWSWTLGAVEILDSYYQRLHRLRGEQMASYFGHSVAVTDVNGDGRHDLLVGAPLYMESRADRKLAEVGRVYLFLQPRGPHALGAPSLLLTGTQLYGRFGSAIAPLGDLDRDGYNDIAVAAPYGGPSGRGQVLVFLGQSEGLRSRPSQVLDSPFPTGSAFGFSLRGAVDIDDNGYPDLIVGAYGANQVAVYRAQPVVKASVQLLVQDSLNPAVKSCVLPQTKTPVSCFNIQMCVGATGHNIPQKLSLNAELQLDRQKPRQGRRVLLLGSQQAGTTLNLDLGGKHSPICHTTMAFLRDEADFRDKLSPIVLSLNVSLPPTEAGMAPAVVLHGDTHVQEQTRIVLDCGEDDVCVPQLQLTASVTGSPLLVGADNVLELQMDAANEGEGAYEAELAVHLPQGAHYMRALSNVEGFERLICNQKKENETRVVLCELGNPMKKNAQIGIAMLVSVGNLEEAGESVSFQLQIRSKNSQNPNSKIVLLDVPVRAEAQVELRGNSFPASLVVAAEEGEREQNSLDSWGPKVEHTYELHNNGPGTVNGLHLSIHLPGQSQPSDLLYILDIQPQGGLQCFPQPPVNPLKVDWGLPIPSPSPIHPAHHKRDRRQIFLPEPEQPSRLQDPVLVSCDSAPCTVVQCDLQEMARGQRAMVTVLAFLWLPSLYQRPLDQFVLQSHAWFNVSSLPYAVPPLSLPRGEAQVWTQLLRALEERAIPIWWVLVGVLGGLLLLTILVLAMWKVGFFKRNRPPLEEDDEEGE
Sequence of human platelet integrin alphaIIb beta3, on human platelets (human) (P05106 27-788, chain 2 of 2, further chain): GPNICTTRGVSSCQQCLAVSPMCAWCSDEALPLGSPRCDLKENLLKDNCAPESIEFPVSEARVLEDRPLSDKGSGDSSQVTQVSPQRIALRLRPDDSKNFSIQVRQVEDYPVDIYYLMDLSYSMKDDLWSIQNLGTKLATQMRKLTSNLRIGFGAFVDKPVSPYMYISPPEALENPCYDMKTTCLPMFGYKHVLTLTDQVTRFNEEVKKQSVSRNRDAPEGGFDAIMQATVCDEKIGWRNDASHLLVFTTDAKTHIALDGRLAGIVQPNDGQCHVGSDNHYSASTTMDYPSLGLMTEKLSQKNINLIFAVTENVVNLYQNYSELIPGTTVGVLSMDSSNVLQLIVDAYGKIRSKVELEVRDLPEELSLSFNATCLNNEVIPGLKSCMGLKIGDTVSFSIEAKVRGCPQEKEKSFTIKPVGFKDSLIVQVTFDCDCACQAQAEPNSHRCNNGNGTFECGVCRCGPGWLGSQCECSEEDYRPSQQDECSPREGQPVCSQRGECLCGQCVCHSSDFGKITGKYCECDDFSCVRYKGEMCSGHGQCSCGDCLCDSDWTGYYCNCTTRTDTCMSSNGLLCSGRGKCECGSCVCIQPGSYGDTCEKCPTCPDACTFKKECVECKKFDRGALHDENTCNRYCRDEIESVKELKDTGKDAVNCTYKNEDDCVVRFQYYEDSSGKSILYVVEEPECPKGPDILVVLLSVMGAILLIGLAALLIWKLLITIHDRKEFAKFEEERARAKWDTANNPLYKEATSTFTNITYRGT

[5] = target: human platelet glycoprotein Ib alpha (GPIb alpha), on human platelets (human) (UniProt P07359)

Sequence of human platelet glycoprotein Ib alpha (GPIb alpha), on human platelets (human) (P07359 17-652): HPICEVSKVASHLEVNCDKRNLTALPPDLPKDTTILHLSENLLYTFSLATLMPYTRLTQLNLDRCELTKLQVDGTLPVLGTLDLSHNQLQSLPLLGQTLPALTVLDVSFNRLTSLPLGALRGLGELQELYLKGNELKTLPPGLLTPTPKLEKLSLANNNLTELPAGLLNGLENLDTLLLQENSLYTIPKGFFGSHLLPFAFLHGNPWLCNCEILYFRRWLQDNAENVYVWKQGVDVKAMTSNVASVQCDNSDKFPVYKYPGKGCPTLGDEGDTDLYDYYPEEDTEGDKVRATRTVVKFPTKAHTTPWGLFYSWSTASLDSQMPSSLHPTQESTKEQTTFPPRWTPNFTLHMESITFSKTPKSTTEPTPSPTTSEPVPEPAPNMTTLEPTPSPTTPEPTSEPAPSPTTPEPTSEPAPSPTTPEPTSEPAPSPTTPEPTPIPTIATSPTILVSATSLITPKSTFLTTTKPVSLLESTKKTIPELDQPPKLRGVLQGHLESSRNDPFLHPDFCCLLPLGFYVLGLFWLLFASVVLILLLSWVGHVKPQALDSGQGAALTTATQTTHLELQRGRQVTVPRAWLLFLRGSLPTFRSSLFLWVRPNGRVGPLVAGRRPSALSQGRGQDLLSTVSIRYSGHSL
Sequence of murine platelet glycoprotein Ib alpha (GPIb alpha), on mouse platelets (mouse) (O35930 17-734): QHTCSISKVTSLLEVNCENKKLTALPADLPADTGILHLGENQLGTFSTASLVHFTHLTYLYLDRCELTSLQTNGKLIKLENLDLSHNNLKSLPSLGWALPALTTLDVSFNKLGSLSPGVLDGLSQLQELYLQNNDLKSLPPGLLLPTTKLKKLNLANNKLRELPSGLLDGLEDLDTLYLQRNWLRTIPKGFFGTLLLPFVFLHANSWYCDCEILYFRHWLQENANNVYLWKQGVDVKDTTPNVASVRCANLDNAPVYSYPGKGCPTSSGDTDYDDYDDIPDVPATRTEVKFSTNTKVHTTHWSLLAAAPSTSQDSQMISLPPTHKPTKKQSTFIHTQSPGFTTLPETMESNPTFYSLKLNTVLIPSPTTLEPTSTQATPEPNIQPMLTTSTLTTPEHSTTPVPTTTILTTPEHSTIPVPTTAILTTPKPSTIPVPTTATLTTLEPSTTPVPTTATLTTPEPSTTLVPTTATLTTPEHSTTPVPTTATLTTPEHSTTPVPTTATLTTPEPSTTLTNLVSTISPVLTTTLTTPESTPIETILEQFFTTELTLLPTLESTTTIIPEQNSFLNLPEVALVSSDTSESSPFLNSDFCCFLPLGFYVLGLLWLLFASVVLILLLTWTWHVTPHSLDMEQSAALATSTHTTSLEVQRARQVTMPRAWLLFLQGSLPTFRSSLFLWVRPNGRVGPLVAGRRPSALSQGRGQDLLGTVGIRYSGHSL

platelet deposition, % of same-species control [1]: 10%
ristocetin-induced platelet aggregation (RIPA), murine PRP, ristocetin ≧2.5 mg/ml [2]: 30%
share of human platelets in total thrombus area in WT mice [3]: 5.7%
Substance: murine plasma VWF, wild type, Q8CIZ8 764-2813

thrombus size in VWF 1326R>H mice after treatment of human platelets with mAb 7E3 [4]: 529 µm^2
Substance: function-blocking monoclonal antibody 7E3 (anti-human alphaIIb beta3)

thrombi formed on collagen-coated cover slips by whole blood of knock-in animals, 1600 s^-1, reduction against WT [2]: 70%
thrombus formation by whole blood of mutant mice over surface-immobilized collagen in vitro, reduction against WT [2]: 80%
translocation velocity of human platelets on immobilized plasma VWF [3]: 3.5 µm/sec
Substance: murine plasma VWF with the 1326R>H mutation (from homozygous VWF 1326R>H knock-in mice), Q8CIZ8 764-2813
average thrombus size at laser-injured arterioles of homozygous VWF 1326R>H mice infused with human platelets [3]: 8950 µm^2
share of human cells in thrombi at laser-injured arterioles of homozygous VWF 1326R>H mice [3]: 91.7%

human platelet accumulation / mm2 on surface-immobilized murine plasma VWF 1326R>H at 1600 s^-1, human blood treated with mAb 6D1 [5]: 0 / mm2
thrombus size in VWF 1326R>H mice after pre-treatment of human platelets with mAb 6D1 [3]: 265 µm^2
Substance: function-blocking monoclonal antibody 6D1 (anti-human GPIb alpha)
